Test results published in patent publication US20110160081A1, “FUNCTIONAL COMPLEMENTATION ASSAY FOR DEFINED GPCR OLIGOMERS” (priority 2008, published 2011).

What was measured:
Test in all cases: cell-based or functional assay
[1] = biological target: DOR-Gqi5 (delta opiate receptor fused to Gqi5) (mouse)
N393A/CAM-Gqi5 (human) = biological target: N393A/CAM-Gqi5 (human)
[2] = biological target: D114^3.32A/E339^6.30A/T343^6.34R-Gq5 (human)

Chain of Myc-tagged D2R (unfused wild type dopamine D2 receptor, short isoform) (P14416 other isoform, or with tags, fused parts or gaps): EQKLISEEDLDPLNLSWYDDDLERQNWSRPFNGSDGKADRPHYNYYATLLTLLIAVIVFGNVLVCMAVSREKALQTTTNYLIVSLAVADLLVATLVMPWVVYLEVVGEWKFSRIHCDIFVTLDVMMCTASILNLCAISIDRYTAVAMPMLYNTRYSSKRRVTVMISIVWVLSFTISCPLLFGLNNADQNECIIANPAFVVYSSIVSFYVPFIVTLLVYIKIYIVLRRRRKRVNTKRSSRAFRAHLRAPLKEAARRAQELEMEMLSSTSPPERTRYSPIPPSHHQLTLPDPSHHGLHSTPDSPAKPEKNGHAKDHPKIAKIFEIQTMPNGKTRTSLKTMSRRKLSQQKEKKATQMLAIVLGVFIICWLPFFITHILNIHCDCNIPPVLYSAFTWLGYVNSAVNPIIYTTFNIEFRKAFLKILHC

| activation at 5 nM DPDPE, aequorin luminescence [1] | Substance | potency of quinpirole in the presence of 5 nM DPDPE, aequorin luminescence [1] | aequorin luminescence on quinpirole (functional complementation) (N393A/CAM-Gqi5 (human)) | maximal activity, aequorin luminescence [2] |
| --- | --- | --- | --- | --- |
| 10 % activation | DPDPE (peptide) |  |  |  |
|  | Myc-tagged D2R (unfused wild type dopamine D2 receptor, short isoform) (from UniProt P14416 2-443) | 10 fold | 3 fold | 49.6 |
